Experimental data as given in patent US20240101959A1, “USE OF IL-2R-BETA-GAMMA AGONIST PEPTIDES IN CELL MANUFACTURING” (MEDIKINE, INC., priority 2022, published 2024).
Positions of bridges follow the written chain, without caps; N, C: chain ends. No end group written: not given here.

T1: hu-IL-2Rβ subunit (human, UniProt P14784 27-240, limits assumed)
T1 construct: also called human interleukin-2 receptor subunit β; CD122
T1 sequence (looked up): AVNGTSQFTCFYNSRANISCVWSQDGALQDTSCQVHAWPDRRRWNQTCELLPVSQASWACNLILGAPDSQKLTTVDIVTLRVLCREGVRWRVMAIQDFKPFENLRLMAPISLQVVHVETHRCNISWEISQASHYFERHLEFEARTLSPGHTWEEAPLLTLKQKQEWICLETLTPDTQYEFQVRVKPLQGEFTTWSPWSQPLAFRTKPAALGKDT


Biological target: T1, hu-IL-2Rβ subunit
Test: phage ELISA competition assay

| Binder | IC50 |
| --- | --- |
| YRGWLPCWRAKLGDLCDLGQPM (disulfide 7-16 (inferred)) [SEQ ID NO 151] | < 100 µM |
| EHFHDCFFAKVGDLCDIFGN [SEQ ID NO 571] | < 100 µM |
| WQREWRWFPCWMAKLGDMCDLD [SEQ ID NO 83] | < 100 µM |
| DWLPDCYFANVGDLCSLFGS [SEQ ID NO 539] | < 100 µM |
| WYPCWMAQLGELCDLGPTESNL [SEQ ID NO 157] | < 100 µM |
| AKGWDTWKPCWLANLGELCDLE [SEQ ID NO 140] | < 100 µM |
| SVVVNNWLPCWMAQLGELCDLD [SEQ ID NO 86] | < 100 µM |
| QDEAVEWFPCWMARLGELCDLE [SEQ ID NO 84] | < 100 µM |
| NEPEGGFYPCWLAQLGELCDLH (disulfide 10-19 (inferred)) [SEQ ID NO 136] | < 100 µM |
| HASWLPCWLAQLGELCDLEPNP [SEQ ID NO 123] | < 100 µM |
| SWHAETWYPCWLAQVGELCDLD [SEQ ID NO 131] | < 100 µM |
| YYPCWMAQLGELCDLE [SEQ ID NO 129] | < 100 µM |
| VPRWYPCWIAQLGELCDLDSDD [SEQ ID NO 150] | < 100 µM |
| KMHKAVWLPCWMAQVGELCDLE [SEQ ID NO 132] | < 100 µM |
| RQAWYPCWMAQLGELCDLEAEL [SEQ ID NO 126] | < 100 µM |
| IGSWWPCWMAQLGELCDLEPEL [SEQ ID NO 154] | < 100 µM |
| WYPCWMAQPGELCDVD [SEQ ID NO 146] | < 100 µM |
| NNSREGWFPCWLAKLGDLCDLD [SEQ ID NO 128] | < 100 µM |
| SEQWWPCWIARLGELCDLDRELSE [SEQ ID NO 116] | < 100 µM |

| Binder | IC50 |
| --- | --- |
| NRRWYPCWMAQLGELCDLDSRP [SEQ ID NO 119] | < 100 µM |
| GEAWYPCWLARLGELCDMDPRV [SEQ ID NO 152] | < 100 µM |
| GTTWYPCWLAQLGELCDLDVLE [SEQ ID NO 155] | < 100 µM |
| QGPVRLWYPCWMAQLGELCDLD [SEQ ID NO 145] | < 100 µM |
| WYPCWMAQLGELCDLDESTRLT (disulfide 4-13 (inferred)) [SEQ ID NO 153] | < 100 µM |
| QDGWLPCWMAQLGELCDLEYKR [SEQ ID NO 118] | < 100 µM |
| WWPCWMAQLGDLCDLEETSGGT [SEQ ID NO 156] | < 100 µM |
| VRPMGVWYPCWIAQLGELCDLV [SEQ ID NO 149] | < 100 µM |
| WYPCWMAQLGELCDLDAGARHL [SEQ ID NO 160] | < 100 µM |
| KLQSWRWYPCWMAQLGELCDLD [SEQ ID NO 135] | < 100 µM |
| WYPCYRARLGELCDLD [SEQ ID NO 82] | < 100 µM |
| KSNFFPCWIAQLGQLCDLEPET [SEQ ID NO 121] | < 100 µM |
| YYPCWMARLGELCDLD [SEQ ID NO 85] | < 100 µM |
| FYPCWMANLGELCDLDFLRELN [SEQ ID NO 122] | < 100 µM |
| RGMCYPCWFARLGELCDLECDQ [SEQ ID NO 159] | < 100 µM |
| WYPCWVAQLGEICDLEMTGPDSWYP [SEQ ID NO 117] | < 100 µM |
| WYPCWMANLGELCDLEYPSWAQ [SEQ ID NO 158] | < 100 µM |
| RDESAGYYPCWIAQLGELCDLE [SEQ ID NO 141] | < 100 µM |
| NGAWYPCWMAQVGELCDLEERW [SEQ ID NO 124] | < 100 µM |

More lines, now with the values ahead:

| IC50 | Binder |
| --- | --- |
| < 100 µM | EGFHDCFFAKVGDLCDIFGH [SEQ ID NO 570] |
| < 100 µM | EHFHDCFFAKVGDLCDKFGQ [SEQ ID NO 572] |
| < 100 µM | LVDCFKVKVGELCDLF (not fully specified (bridges); cysteine pairing not given here) [SEQ ID NO 555] |
| < 10 µM | YPCWMAQLGELCDL [SEQ ID NO 621] |
| < 100 µM | DFFHDCFFAKVGDLCDFFFG [SEQ ID NO 569] |
| < 100 µM | NWFHDCFLARVGDLCDLFLD [SEQ ID NO 543] |
| < 100 µM | WTCWLTQLGYDCNLDVVDQSLG [SEQ ID NO 550] |
| < 100 µM | WPCWALGELCDLD [SEQ ID NO 558] |
| < 100 µM | HWFLDCFLANVGDLCDFFGN [SEQ ID NO 540] |
| < 100 µM | YSFKDCYFAKVGELCELFLW [SEQ ID NO 544] |
| < 100 µM | EIFKDCLFANVGELCEIFPS [SEQ ID NO 542] |
| < 100 µM | DGSWYTCWFTQLGEWCEQDDAK [SEQ ID NO 551] |
| < 100 µM | YWCSVWQLGSVCEMNNEETQ [SEQ ID NO 549] |
| < 100 µM | HIFHDCFIAKVGDLCDLFHS [SEQ ID NO 573] |
| < 10 µM | YPCHMAQLGELCDLWSWGDI (not fully specified (bridges); cysteine pairing not given here) [SEQ ID NO 620] |
| < 100 µM | SYLCWLDHWGVICEED (not fully specified (bridges); cysteine pairing not given here) [SEQ ID NO 546] |
| < 100 µM | NWLPDCLFANVGELCDIFPW [SEQ ID NO 541] |
| < 10 µM | VQYKKCWMAQLGDLCELDPS (not fully specified (bridges); cysteine pairing not given here) [SEQ ID NO 619] |
| < 100 µM | QMVWWDCWSTQEGPVCELNWTA [SEQ ID NO 548] |
| < 100 µM | WYTCMMDWLGVHCELE [SEQ ID NO 547] |
| < 100 µM | VHDCFIAQVGDLCDLF [SEQ ID NO 556] |
| < 100 µM | EFFHDCYVARVGELCDLFGW [SEQ ID NO 545] |
| < 100 µM | AFFHDCFFAKAGDLCDFFDD [SEQ ID NO 568] |
| < 100 µM | WPCWLGELCDLD [SEQ ID NO 559] |
| < 100 µM | WYPCWGELCDLD [SEQ ID NO 560] |
| < 100 µM | WPCWAALGELCDLD [SEQ ID NO 557] |
| < 100 µM | EFWGWQCWQEPLGWSCDLEWMD [SEQ ID NO 552] |
